In test [1] the target is T1, FLAG-dKDM4A (recombinant, Sf21) (Drosophila melanogaster, UniProt Q9V333 1-495).
T1 sequence (looked up): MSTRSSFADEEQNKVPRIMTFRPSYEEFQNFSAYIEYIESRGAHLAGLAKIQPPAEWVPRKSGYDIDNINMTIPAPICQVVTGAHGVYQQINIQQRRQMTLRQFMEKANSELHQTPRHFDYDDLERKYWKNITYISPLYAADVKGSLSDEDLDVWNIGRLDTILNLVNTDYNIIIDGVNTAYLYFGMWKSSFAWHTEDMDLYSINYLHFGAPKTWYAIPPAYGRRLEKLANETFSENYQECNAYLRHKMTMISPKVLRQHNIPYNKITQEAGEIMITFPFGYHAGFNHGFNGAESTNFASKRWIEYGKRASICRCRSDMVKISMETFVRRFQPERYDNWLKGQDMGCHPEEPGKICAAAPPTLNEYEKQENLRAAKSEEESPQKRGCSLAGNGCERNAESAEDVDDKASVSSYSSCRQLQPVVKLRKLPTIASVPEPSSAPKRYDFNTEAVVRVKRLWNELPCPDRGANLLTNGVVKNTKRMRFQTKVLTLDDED
Description: co-IP.

Test [2] has as its target T1, FLAG-dKDM4A (recombinant, Sf21). Description: co-IP. The source holds these as a separate data set.

The text below walks through data of PMC2642969 (Molecular cell, 2008).

Changes are numbered by the printed parent chain. Names may count otherwise. Read-outs that look alike come from different tables or passages of the source.

B1: HA-HP1a (recombinant, full-length) (natural protein, Drosophila melanogaster, UniProt P05205 1-206, looked up)
chain: MGKKIDNPESSAKVSDAEEEEEEYAVEKIIDRRVRKGKVEYYLKWKGYPETENTWEPENNLDCQDLIQQYEASRKDEEKSAASKKDRPSSSAKAKETQGRASSSTSTASKRKSEEPTAPSGNKSKRTTDAEQDTIPVSGSTGFDRGLEAEKILGASDNNGRLTFLIQFKGVDQAEMVPSSVANEKIPRMVIHFYEERLSWYSDNED
For B1, in test [1], the binding result is “binds”.

B2: HA-HP1a-V26M (natural protein, Drosophila melanogaster, UniProt P05205 1-206, looked up)
chain: B1 chain with V26M
B2: the binding result in test [2] was “binds”.
